The source of these data is a protein production outcome set (Wang et al. 2014).

The data set is described as follows: label from the status in PepcDB records.
In the case of “MAPKDQAADMDYDQTKKMVVDILKTDDGKKAIKELLNDDAMNEALVIDQDAIKGTIEKTLTSKKGEEFWKNIFEDTDFAEGFAKTLQTEHEKVIKKLMKDPDYQKMLMSVMQDPGMDKKYSQLAKSQEFRSYLEEVINETLSSPLYKKQFEDELKKAAKDTAKESELEHHHHHH”, the protein production entry was “not failed”.

Turning to “MAPLLMILAAQLLIASGNLLVKLLETNTPVFQLVLYRQLFATLLVLPFVWHLQGNLKLSPFYKVHLSRALLIGLGNAIFMLAVLHLPLATVTAVIYSSPLILLLLSAFFLNERIGYRRSVAGLIGFTGILLISQPTEVNLYIGLAFFGAMISAINSLILKAYSTHEHPFSTLFWSNAFAMVFLIPATWYEGANFSLPVAQVGLTLGVFYVGMTYLIIHAYRRADASQMAPVEYTGLIFAALLGWWFLDETLSVVVCIGIGLVIFSSLLPSYGELKAKWKSRRR”, the protein production entry was “failed”.

Take “MAPLSFEVRSVSVLVLVLAVSAAFCLGIGFVLQQNAAQHAPLSDFLSPRLLLDLMHVRRWLGGIGFMVVGMVLGAVALAHGELSLVEPLLATNLLFALGLSRRQTKQPLGRQGWAGLALLAGGVTAFIVAGQPTGGDAVTNPLRHWVIIGVMVGFALLLTTYAKQSRLSAAPVLLSLAAGLLYGVQDALTRVSGQRFSEGGWPELVTGWQPYAVLALGVTGLVLVQSAFETAPLRMSLPALTAAQPLAGIVCGVGFLGDQLRTDTGALAWEAAGLAAVVLGIVLLGLHPAMPRGSAEAERQRDLQPH”: the protein production result was “failed”.

As for “MAPNASCLCVHVRSEEWDLMTFDANPYDSVKKIKEHVRSKTKVPVQDQVLLLGSKILKPRRSLSSYGIDKEKTIHLTLKVVKPSDEELP”, the protein production result is listed as “failed”.

Consider “MAPPTAAPEPNTVPETSPTGHRMFSRIRLATPTDVPFIHKLIHQMAVFERLTHLFVATESGLASTLFNSRPFQAVTVFLLEISPSPFPTTHDASSPDFTPFLETHKVDLPIEDPDREKFLPDKLNDVVVAGFVLFFPNYPSFLAKQGFYIEDIFMREPYRRKGFGKLLLTAVAKQAVKLGVGRVEWIVIDWNVNAINFYEQMGAQVFKEWRLCRLTGDALQAIDKLNI”, for which the protein production entry was “failed”.

For “MAPQKPVSAAQTAQHSAVWIDVRSEQEFSEGHLHNAVNIPVDQIVRRIYEAAPDKDTPVNLYCRSGRRAEAALQELKKAGYTNVANHGGYEDLLKKGLEHHHHHH”, the protein production entry is “not failed”.

Take “MAPQSHGRSRINSIDMMRGLVMLIMLLDHVREQFFLHMQVSDPMDLSTTTWDLFVSRFAAHFCAPVFVFLTGVSAWLYANRGHGEPRSVRVFLLKRGLFLIALEVLVINFSWMGNYHTLWLQVIWVIGLSMLALAALIKLPRLWMALLGLLIVFGHNLLSPIHFEPDTWGYSLWTILHDRGYLIAEGDLKLKVSYPLLPWIGVILLGYVAGPLFSRKFEAWQRQQRLMLLGVGCFAFFCLLRGFNLYGETLPWQVGESIGQTLMSVFNLTKYPPSLSFLLVTLGGMFCGLVLFERYFAAGSLFSWIGQKLAVFGSVPMFFYILHLYVLLLLYLVAKGLFGANHGELFGVAHMGWVWLISLVLIPLLYYPVSWFSRYKSQSQQAWLKYL”: the protein production entry is on record as “failed”.

Take “MAPSSSTFKQVADDWLKQYANDVKVSSVRAREKAIQHAIERFNTKPIQTIKKHDYQRFVDDISAQYSKNYVDSIVASTNMIFKYAYDTRLIKAMPSEGIKRPKKKLEHHHHHH”: the protein production result is “not failed”.

Turning to “MAPTFSPNPQNFTKKDKTKAERRKPEEGDDDHHHNASQLFLNPWQTRAARCRSLANGMLMTLHQLRGLLLSSTKLETRRKEVENLTHQGKMNLDIIKMGKFLRNPPKNGFAVYAQNKWRGVCLGRSFIYI”, the protein production entry is on record as “failed”.

In the case of “MAQAPDSSVPVRMVVDLTVDDYAAFTAYAYQRPALRRRRHASHLRFAVLLAAGLLAVILLRVWDGRQLDWGAALPAYAQALVVGLAVFALLAVGYEYALPRLARGNVRRALGRQPDNPFLGRHTLDFGPRGVDDAAAGASGTMPWEAVGQVEETASHLYLFISPLQGVIIPKRGQSADVLQAVRAQLRAHVPGAALADAADKQ”, the protein production result is “failed”.

Turning to “MAQGFKITYTDQACLLDIQDPQNKESQSFHYALVPRGVEAENIPADYTVIETPIRSVICMTSLQLSNFIKLEELDAVVGITSTRHLFNKKINDRLKDGSIHKIGIEGNFDNEVIMSVNPDLILISPFKRGGYDALKEVGIPLMPHLGYKEMTPLGQAEWIKFVGLLLGREDKANKQFAAIKKRYNELKELTGLEHHHHHH”, the protein production result is on record as “failed”.

In the case of “MAQHHGHLGAVYDAAGPQEVAALYDRWAETYESEMARAGYRHPAIGVALLARHLPRGARPLLDAGAGTGLLGEWLEIVGYPEVEALDISAGMLEVARAKGIYARCHNLPLGAALPFRDGAFAGIISTGVFTTGHVGAEALPELLRICRPGGVIVLTVKESLWQGGFAVSLEAAVASGLEHHHHHH”, the protein production entry is “failed”.

In the case of “MAQKDRNTRIAQKAFEMVDKVYGKSPNLTTKPYDPKDESPSRFTQSAYKYGGPKIYTVREATSTYSYGRAIYMYAPESTIKEPVVSHPTEHIQYYGGTRPFVANPNRFERPKGRVINCDEAVQLYGGVLIKEFRK”, the protein production entry is reported as “failed”.

Regarding “MAQKILVEQVVKRKAIVVQPKDTVDRVAKILSRNKAGSAVVMEGDEILGVVTERDILDKVVAKGKNPKEVKVEEIMTKNPVKIEYDYDIEDVIELMTEKGVRRVLVTKFGKPIGFVTAADILAALASHNHEEEEEEREEESEVYGICEVCGQYGALYKVYHEGRELWVCETCKDLIEGR”, the protein production entry is “not failed”.

Regarding “MAQKKGFKYRFYPTDKQKAVLAKVFGHTRYVWNWALELRTDAYYEEGESLSYTDTAKRLTDLKKEKTWLREVSSVALQQKLRDLDQAFQNFFDGRCGYPNFKSKHDKQAARFASNAFTLHGKKLSVAKVPGSLNVRWSRDLPDEAKPTSVTLTKDPAGRYFVSITSAVPEPDPEPTVTDGDGNQKSVGIDLGIADIVVTSDGWKSGNPRHLENDLYRLRKAQRRLSRKEKNGSDGPSENWKKQKRRVAKIHAEIKDKREDFLHKLSRRVVDENQVIALESLSVKGMQQNRSLARPISDTGWSTLVRMIEYKAKEAGRTVVKIDRWFPSTKRCSECGYVTESKPLSVRSWDCPRCDTTHDRDINAAKNIRTAGLAGAFQKANDSGGHSKTRDAFRIERFGANAHGPVNE”, the protein production entry is on record as “failed”.

As to “MAQKLYPPIHPGEILMEDFIKGFGLTQNKVAVSIGVPPRRINEIVHGKRSITADTALRLGRYFGIDPQFWLSLQTQYELELDRDAGAATYAQITPLKVA”, the protein production entry was “failed”.

For “MAQLTPLDISFIAGYLLLTLLVGLFFSRRASENVGEFFLSGRKLPWWIAGTGMVATTFAADTPLAVAGFVAKNGIAGNWVWWTFVSGGMLTVFFFARLWRRANILTDLEFIELRYSGKAASFLRGFKAVYFGLFINAVIIGWVNLAMFKIIKIMIPGLDPQLTIVGLVIFTAIYSGMSGLWGVSITDAVQFVIAMAGCIILAVLAVNSPQVTAAGGLKQALPDWMFDFFPSFSSTVNTSATGAYALPFTAFAAMAFVQWWASWYPGAEPGGGGYIAQRMMSAKDEKNSLLATLWFTIAHYCVRPWPWIVVGLASLVMFPNLPAGQKEDGFVHVMNAVLPAGLKGLLIAAFMAAYMSTLSTHLNWGTSYLINDLYKRFIKREAEQNHYVLMSRIVTAVTAIFALYITFYVLETITGAWEFIIQCGAGTGFVLIMRWFWWRLNAWSEITSMVAPIVAYSYINQFTTIVFPESIYIIVLFTITCTLAVTWLTKPTDREKLHAFYRTTRVGGALWKPVADEMPDVKGDTGFPALFADWFFGIVLVYATLFGTGKLIFGEPVAAALYYAAGALAGVMIYRDLSKRNWKTFD”, the protein production entry was “failed”.

Regarding “MAQNEGVSFSECVAAAKLIRSSNGPGWRQAWEELARSHVQRAEEARRTGNEPEAQKSWLHAANYFMAAAIESCPEGAEPALGALARSCLHNYLAHLTPQGETVAIPWLEPRSLEGFYLPVGTYSAETGPVVVCIAETRRTKEEILSLVLRSARKRGMTLLCVDLPDEPPSSRAGPETGIPAILDYLIDGRGIDAKRIAVISDGSPSSLVTRGIALDGRIAAAVCDGGLWDLWVARQTEACGAALGMVQGCARRPAVSCPMLVPLLASEGIEPGHARQLLTEHHPGNRDILLKVFGETSSGPWTLNGYDPILVADFVFDWVGQQLKAATGDADCIRRLESRL”, the protein production entry is recorded as “failed”.

Take “MAQNKNLNLELSLSQYVEDDPWVLKKKLSDSDLYYSAQLYLPKQEMEHFVLPEMDHDLVRKLGAGVEVKVRDVDSVDDFYTVRLKVRNGQYYLGKGWGLIKNAKVLNTGDHIGLFWDKLTREVKFKHFKSQSITMHREAGTTSTQKNVLQKK”: the protein production result is “failed”.

On to “MAQPERFGRYRVLRRLGSGSFATVWLGHDDLLDTPVAIKVLAENWAHNLDIHQRFVEEARILRQADSEWLVRVHDIGTLPDDRPYFVMTYADRGSVADRIAQGPLPLDEALRLLTEIGQGVTVLHRHGTIHRDIKPSNVLLQSSPVGERVLVADLGFAKSIDGASGFTASAGTPGYMSPEQSVVGGDIDVRADVYSLGAVAYELVTGKRPPSPPVRVPPSRLRPGVPPALDELIMSALSPNRSDRPPDAATFTSRIREIRMSPDLELATPWWQRYRATWTRLVALVATAVAVLGVAPAASASPHLPMMEIYDASGELHVRVPTPWLRQMQLNGWSPRELGLPGGHEPGLLVATDLDAWSDARQSVSGLFAGLFVSDGQSPDLDRLISSGLCSGQPQRQRFTNAHWDGELWQWVDCSPDSSEGDVFTAAVLQHRGQERTLYLEIRQTEHQPQTVAEILDGLRLIS”, for which the protein production result is recorded as “failed”.

Take “MAQTQLPHDAKAGPTKPEVRAVVRSKLALTDDDHFVEVGSCTGAVTIAAARDAGRVTALERKADRLETTRKNLAANGLADAVELRNAEAPAELPADADALFIGGSRNYDAVLDHAAETGVDRIVMNVSRLEVAGAATQAFRDRDILTEVVQFQVSHGYELAGATSFDSENPVYMLVGSASGDTEADR”: the protein production entry was “failed”.

As for “MAQTQTFRRTCFLLAIFILISVSGIGTASEFRVWPGQSIQDAVDSASPGDIILVESGEFNESIRVNKENLTIESASGNPDDIFIAGDTPISYVFEVVANDVKINFFSITDGRCGIFLNNVENCVINGNKISNQEAGIYLLNSRNNLLTNNMVYSNEDCGLKLLASSENIIYGNYFDNVENARDNRFNVWNNSKGNYWSDYGGTDENGDGIGDTPYAINPEVGSMDYRPLIEYSQEAPILPKALFTSDVTEGYAPLVVRFKDFSEDAASRLWDFGDGNFSSYPNPQHTYLNEGTYVVSLTVSNENGSDSASVTVYVRDASELAGPMLPKAQFIYNTTSGHIPLVIKFVDISENADCVTWYFGDGKTSCCPEPEHTFCCPGSYTVSLAAINENGTSSASIVVNVLPAESVESSEDTENSANTGSGSDKNNACNIVNETDADASEKAGDPELITRSENTDSLGNSIIEYASDTTDKFADAENSINAEATENSESDSNGGGEGTGTARIIHREELEAIKDSVISTASSNILKETERALENETLKVQKNVEDFVDDSLPESVGDSLPEMEQRIAPWIPSFLGLAGVIFIVSVMKRGRRRRQK”, the protein production result was “failed”.

As for “MAQVFNFSSGPAMLPAEVLKLAQQELCDWHGLGTSVMEISHRGKEFIQVAEEAEQDFRDLLNIPSNYKVLFCHGGGRGQFAGVPLNLLGDKTTADYVDAGYWAASAIKEAKKYCAPQIIDAKITVDGKRAVKPMREWQLSDNAAYLHYCPNETIDGIAIDETPDFGPEVVVTADFSSTILSAPLDVSRYGVIYAGAQKNIGPAGLTLVIVREDLLGKAHESCPSILDYTVLNDNDSMFNTPPTFAWYLSGLVFKWLKAQGGVAAMHKINQQKAELLYGVIDNSDFYRNDVAQANRSRMNVPFQLADNTLDKVFLEESFAAGLHALKGHRVVGGMRASIYNAMPIEGVKALTDFMIDFERRHG”, the protein production entry is reported as “not failed”.
